{"source": "paper PMC10397247", "assay_in_all_cases": "two-hybrid library CCmax;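 note: natural log of median RNA to DNA barcode read ratio; higher means stronger binding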", "key": {"[1]": {"molecular_target": "T1, 4H3395-AA", "T1 chain": "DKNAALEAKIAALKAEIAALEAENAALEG"}, "[2]": {"molecular_target": "T2, 4H629-AA", "T2 chain": "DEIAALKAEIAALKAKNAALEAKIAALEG", "details": "mean of both orientations"}, "[3]": {"molecular_target": "T3, 4H3697-AA", "T3 chain": "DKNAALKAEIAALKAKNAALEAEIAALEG", "details": "mean of both orientations"}, "[4]": {"molecular_target": "T4, 4H174-AA", "T4 chain": "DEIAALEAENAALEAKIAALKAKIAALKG"}, "[5]": {"molecular_target": "T5, 4H2389-AA", "T5 chain": "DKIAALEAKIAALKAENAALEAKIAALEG", "details": "mean of both orientations"}, "[6]": {"molecular_target": "T6, 4H3590-AA", "T6 chain": "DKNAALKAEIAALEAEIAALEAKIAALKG", "details": "mean of both orientations"}, "[7]": {"molecular_target": "T7, 4H3865-AA", "T7 chain": "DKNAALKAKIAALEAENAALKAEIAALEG", "details": "mean of both orientations"}, "[8]": {"molecular_target": "T8, 4H3410-AA", "T8 chain": "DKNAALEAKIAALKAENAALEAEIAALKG", "details": "mean of both orientations"}, "[9]": {"molecular_target": "T9, 4H536-AA", "T9 chain": "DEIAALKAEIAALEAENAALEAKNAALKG", "details": "mean of both orientations"}, "[10]": {"molecular_target": "T10, 4H2274-AA", "T10 chain": "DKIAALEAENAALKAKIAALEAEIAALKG", "details": "mean of both orientations"}, "[11]": {"molecular_target": "T11, 4H2865-AA", "T11 chain": "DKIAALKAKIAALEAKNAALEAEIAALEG", "details": "mean of both orientations"}, "[12]": {"molecular_target": "T12, 4H2725-AA", "T12 chain": "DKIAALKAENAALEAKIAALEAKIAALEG", "details": "mean of both orientations"}, "[13]": {"molecular_target": "T13, 4H3130-AA", "T13 chain": "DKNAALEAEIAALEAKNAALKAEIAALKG"}, "[14]": {"molecular_target": "T14, 4H891-AA", "T14 chain": "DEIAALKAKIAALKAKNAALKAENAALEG", "details": "mean of both orientations"}, "[15]": {"molecular_target": "T15, 4H94-AA", "T15 chain": "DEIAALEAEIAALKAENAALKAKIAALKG", "details": "mean of both orientations"}, "[16]": {"molecular_target": "T16, 4H1877-AA", "T16 chain": "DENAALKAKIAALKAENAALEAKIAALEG", "details": "mean of both orientations"}, "[17]": {"molecular_target": "T17, 4H2649-AA", "T17 chain": "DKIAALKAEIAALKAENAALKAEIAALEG", "details": "mean of both orientations"}, "[18]": {"molecular_target": "T18, 4H2109-AA", "T18 chain": "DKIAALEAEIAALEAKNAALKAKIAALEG", "details": "mean of both orientations"}, "[19]": {"molecular_target": "T19, 4H458-AA", "T19 chain": "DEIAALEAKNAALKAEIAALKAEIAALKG", "details": "mean of both orientations"}, "[20]": {"molecular_target": "T20, 4H2438-AA", "T20 chain": "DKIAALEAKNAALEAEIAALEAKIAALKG", "details": "mean of both orientations"}, "[21]": {"molecular_target": "T21, 4H930-AA", "T21 chain": "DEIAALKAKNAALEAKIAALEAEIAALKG", "details": "mean of both orientations"}, "[22]": {"molecular_target": "T22, 4H3016-AA", "T22 chain": "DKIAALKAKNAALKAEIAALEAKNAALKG", "details": "mean of both orientations"}, "[23]": {"molecular_target": "T23, 4H797-AA", "T23 chain": "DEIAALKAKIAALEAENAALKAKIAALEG", "details": "mean of both orientations"}, "[24]": {"molecular_target": "T24, 4H570-AA", "T24 chain": "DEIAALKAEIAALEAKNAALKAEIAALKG", "details": "mean of both orientations"}, "[25]": {"molecular_target": "T25, 4H2253-AA", "T25 chain": "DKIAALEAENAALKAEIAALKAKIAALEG", "details": "mean of both orientations"}, "[26]": {"molecular_target": "T26, 4H3381-AA", "T26 chain": "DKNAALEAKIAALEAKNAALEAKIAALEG", "details": "mean of both orientations"}, "[27]": {"molecular_target": "T27, 4H2330-AA", "T27 chain": "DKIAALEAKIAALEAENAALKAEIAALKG", "details": "mean of both orientations"}, "[28]": {"molecular_target": "T28, 4H2162-AA", "T28 chain": "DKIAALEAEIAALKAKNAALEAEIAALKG", "details": "mean of both orientations"}, "[29]": {"molecular_target": "T29, 4H1864-AA", "T29 chain": "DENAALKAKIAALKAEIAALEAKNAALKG", "details": "mean of both orientations"}, "[30]": {"molecular_target": "T30, 4H909-AA", "T30 chain": "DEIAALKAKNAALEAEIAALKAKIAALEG", "details": "mean of both orientations"}, "[31]": {"molecular_target": "T31, 4H2698-AA", "T31 chain": "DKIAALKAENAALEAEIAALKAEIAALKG", "details": "mean of both orientations"}, "[32]": {"molecular_target": "T32, 4H3009-AA", "T32 chain": "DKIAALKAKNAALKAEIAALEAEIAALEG", "details": "mean of both orientations"}, "[33]": {"molecular_target": "T33, 4H3753-AA", "T33 chain": "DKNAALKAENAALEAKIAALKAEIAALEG", "details": "mean of both orientations"}, "[34]": {"molecular_target": "T34, 4H310-AA", "T34 chain": "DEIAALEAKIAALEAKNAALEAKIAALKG", "details": "mean of both orientations"}, "[35]": {"molecular_target": "T35, 4H1842-AA", "T35 chain": "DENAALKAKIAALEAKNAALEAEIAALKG", "details": "mean of both orientations"}, "[36]": {"molecular_target": "T36, 4H745-AA", "T36 chain": "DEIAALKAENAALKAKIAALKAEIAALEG", "details": "mean of both orientations"}, "[37]": {"molecular_target": "T37, 4H710-AA", "T37 chain": "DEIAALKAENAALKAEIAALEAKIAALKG", "details": "mean of both orientations"}, "[38]": {"molecular_target": "T38, 4H2473-AA", "T38 chain": "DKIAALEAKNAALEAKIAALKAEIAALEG", "details": "mean of both orientations"}, "[39]": {"molecular_target": "T39, 4H3165-AA", "T39 chain": "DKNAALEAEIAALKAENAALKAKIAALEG", "details": "mean of both orientations"}, "[40]": {"molecular_target": "T40, 4H850-AA", "T40 chain": "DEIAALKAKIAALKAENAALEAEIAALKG", "details": "mean of both orientations"}, "[41]": {"molecular_target": "T41, 4H485-AA", "T41 chain": "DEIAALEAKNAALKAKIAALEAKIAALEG", "details": "mean of both orientations"}, "[42]": {"molecular_target": "T42, 4H3120-AA", "T42 chain": "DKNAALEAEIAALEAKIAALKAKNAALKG", "details": "mean of both orientations"}}, "data": [{"binder": "DEIAALEAENAALEAKIAALKAKIAALKG", "note": "[4H174-AA]", "values": [{"measurement": "interaction score", "setting": "[1]", "result": 0.219}, {"measurement": "interaction score", "setting": "[2]", "result": -0.697}, {"measurement": "interaction score", "setting": "[3]", "result": -0.364}, {"measurement": "interaction score", "setting": "[4]", "result": 1.79}, {"measurement": "interaction score", "setting": "[5]", "result": -0.219}, {"measurement": "interaction score", "setting": "[6]", "result": 2.2}, {"measurement": "interaction score", "setting": "[7]", "result": 0.259}, {"measurement": "interaction score", "setting": "[8]", "result": -0.289}, {"measurement": "interaction score", "setting": "[9]", "result": -0.546}, {"measurement": "interaction score", "setting": "[10]", "result": 1.3}, {"measurement": "interaction score", "setting": "[11]", "result": 0.805}, {"measurement": "interaction score", "setting": "[12]", "result": 1.47}, {"measurement": "interaction score", "setting": "[13]", "result": 1.99}, {"measurement": "interaction score", "setting": "[14]", "result": -0.401}, {"measurement": "interaction score", "setting": "[15]", "result": 1.29}, {"measurement": "interaction score", "setting": "[16]", "result": -0.507}, {"measurement": "interaction score", "setting": "[17]", "result": -0.748}, {"measurement": "interaction score", "setting": "[18]", "result": 2.01}, {"measurement": "interaction score", "setting": "[19]", "result": 0.887}, {"measurement": "interaction score", "setting": "[20]", "result": 2.25}, {"measurement": "interaction score", "setting": "[21]", "result": 1.44}, {"measurement": "interaction score", "setting": "[22]", "result": 1.81}, {"measurement": "interaction score", "setting": "[23]", "result": -1.35}, {"measurement": "interaction score", "setting": "[24]", "result": 1.49}, {"measurement": "interaction score", "setting": "[25]", "result": 0.429}, {"measurement": "interaction score", "setting": "[26]", "result": -1.38}, {"measurement": "interaction score", "setting": "[27]", "result": 0.552}, {"measurement": "interaction score", "setting": "[28]", "result": -0.944}, {"measurement": "interaction score", "setting": "[29]", "result": -0.256}, {"measurement": "interaction score", "setting": "[30]", "result": 0.929}, {"measurement": "interaction score", "setting": "[31]", "result": 2.04}, {"measurement": "interaction score", "setting": "[32]", "result": 2.3}, {"measurement": "interaction score", "setting": "[33]", "result": 1.06}, {"measurement": "interaction score", "setting": "[34]", "result": 1.6}, {"measurement": "interaction score", "setting": "[35]", "result": -0.689}, {"measurement": "interaction score", "setting": "[36]", "result": 1.69}, {"measurement": "interaction score", "setting": "[37]", "result": 2.23}, {"measurement": "interaction score", "setting": "[38]", "result": 1.69}, {"measurement": "interaction score", "setting": "[39]", "result": -1.24}, {"measurement": "interaction score", "setting": "[40]", "result": 1.05}, {"measurement": "interaction score", "setting": "[41]", "result": 1.94}, {"measurement": "interaction score", "setting": "[42]", "result": -0.846}]}]}
